For this data set, the system named is Saccharomyces cerevisiae. In words: transcriptional activation domain activity (GFP:mCherry ratio, weighted mean of sorted bins, harmonized to initial dataset scale) (arbitrary fluorescence ratio units); higher = stronger transcriptional activation. Particulars: beta-estradiol 1 µM; induction time 4 h. In short, it runs like this:
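For this assay, yeast diploids with a GFP reporter carried barcoded protein tiles at URA3, each fused to an estradiol-inducible synthetic transcription factor. Induction was a 1:5 dilution into SC with 1 uM beta-estradiol for 4 hours at 30 °C, followed by sorting into 8 bins by GFP:mCherry ratio and barcode sequencing. Tiles under 50 reads were dropped, and activation activity was calculated as the read-weighted mean of bin median fluorescence, averaged across barcodes and linearly mapped onto the initial dataset scale.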

Regarding “MPMLLIIFPLLYFLYCIHNLFHIISHYYEVFNTFYIVILHLSFLFYLHFILFH”, the “transcriptional activation domain activity” value worked out at 69500.

In the case of “MKGIRLYFKYVLLHVLLLPPSLLPFFFPLSPLFYMSILMGFSSPFFFFFSFIH”, the “transcriptional activation domain activity” value is 53000.

Regarding “MLRLYHLMWDSGDYIYTIIGGWLPLPRDLMYVPFPGFYLKYMIFPTPLTLSVL”, the “transcriptional activation domain activity” value worked out at 43600.

In the case of “IPGPILLCSLTALSCLTLFTLLVSIYWSVSSVCHLIFLTILWILRCLVTLLRF”, the “transcriptional activation domain activity” value came to 34600.

As to “APSAARRSHTKSSPSSGTSPSGPPSARTSSRCTPPPRSSSPSGRRRSSCCKRS”, the “transcriptional activation domain activity” value turned out to be 45900.

As for “QLLLVHEGCVMDRLAIAGFEGAALARALWFASFLKGVVRQDRIMEGMYYLLAP”, the “transcriptional activation domain activity” value is 26300.

On to “PFLTTYPESYVHRAFEFGRVFDYRWTVNWRMIPEKTFVSTWFAHQLLLCHVIA”, for which the “transcriptional activation domain activity” value was found to be 56500.

“FFFSGTALRGIYVGCLVFLVLLWFLHMFFILFTFPFFFVLVWVLLFFRELHFA”: the “transcriptional activation domain activity” value was 50600.

“VVPYYCLFVFFPFYSCVLVRLAGNCHSCLIIALFFLILISGRSFFFFFFFFFF”: the “transcriptional activation domain activity” value worked out at 14200.

“MFCLRSWIPVLFFLLRTHASPIYLVLFISATYFLNRPCVYCSLLLFILVVALF”: the “transcriptional activation domain activity” value amounted to 61100.

Regarding “MLLAMGWKVATGLQTLSIFRRDGFLYFLVWINLINTMIVLFARPTLLFVTIFF”, the “transcriptional activation domain activity” value was found to be 51900.

Take “MKLVCHSLQLHFLSILVLEDLLIATLRVAQSCITAFFWRNHFSFTCLCLLTML”: the “transcriptional activation domain activity” value stood at 63200.

Take “FFHVTIRCASQGCGIAFGILGFQNTNVFLAYLILGAEGYFTLVLCVFRFLISW”: the “transcriptional activation domain activity” value turned out to be 73400.

As for “MAPVTQTEWPRQRALHSKSRNGCTTCKQRRVKCDEGKPVWPSAARTAGADRSS”, the “transcriptional activation domain activity” value turned out to be 50600.

Turning to “GCVVSCKLVGLFTITLIGVAVLYDLWRIIDIRRGTTMAQFARHFVARALALIA”, the “transcriptional activation domain activity” value was found to be 21600.

As for “STTRQQRASLPLIHDIESFANDSVMANPLSDSASFLSEENEDDAFGALNYNSL”, the “transcriptional activation domain activity” value came out at 51500.

As to “MTEPMLFFVLYFIRLLPFSFIFFHFLSFSLSILFFVILFSSSFHPFSSSFFFI”, the “transcriptional activation domain activity” value came out at 53400.

As to “MEFSFTMVGIFYFLYSLAWSFSFLFFISYDHSLAGLVTIVKAFLISYYFFIFL”, the “transcriptional activation domain activity” value was found to be 26200.

Regarding “SLSTFVYTFLRFHFYFFAFFLVALTFSFFLLFCSLFVCPVGIIFLYFFIFFVL”, the “transcriptional activation domain activity” value was 52100.

For the sequence “TLKGIVLRNPVTLRLEEEEDDAANLTQYFVKCSEVDKFLLIQVMIKMRMIKGK”, the “transcriptional activation domain activity” value turned out to be 46700.

Turning to “MSPPTLREVNVSLPRKFDTPDEPWHRYVTIDLLHYVLGYTLFHPFVSCVLVLC”, the “transcriptional activation domain activity” value was 35200.

For the sequence “VAVTFHTEPHRLVSIIPALISIWDYILGLSPAELSSCTGIHWCIYILTIIFGF”, the “transcriptional activation domain activity” value was determined as 55400.

“LYLLVEILLLATYAVNYNVQYIVLETVTPIAVSSCLVPHTRFLFRLILFIQGL”: the “transcriptional activation domain activity” value stood at 63200.

On to “FHAWVSHIVQLNLFGLLSQTLMLIMFKLDVGTYFFLNDVILCKVYVFSLFVTL”, for which the “transcriptional activation domain activity” value amounted to 65400.

Turning to “FLYLLSRYLGLAVHITNTVFAILVGHYQVIPVHLCRIGLVYQGAVLFVMLGIL”, the “transcriptional activation domain activity” value worked out at 46900.

On to “QWSVMTYLYLAVRYFGIFLAMICSYWGGLFYIPETVSHVMFLLMQWSYSVYFC”, for which the “transcriptional activation domain activity” value is 78000.

As for “MSDTKSARSGDKERDKRRREKESDSSSKDGRRGSHSHSKTPEEPKEKGHKRKH”, the “transcriptional activation domain activity” value was 13000.

“MFLYSHPPLHPNVFLPPPSLFICTMLQLVFYRPSSVYLLLLLFWIYPPLFLLC”: the “transcriptional activation domain activity” value came out at 56400.

For “LRCVGFILYLLLLIGKIMAFKEIDLLQEHQNFWAKVIYNARGSNRSWDWLSMI”, the “transcriptional activation domain activity” value came out at 59600.

For the sequence “DTNLPTNPEAIQLHGDEDIKAWLVLAKNLAINPSRILVVLHRAVRGTQTPALG”, the “transcriptional activation domain activity” value was 40400.

In the case of “MCASVILFCLVFSSSYLLAIFKDCYLALLYYMQCWSMYYLFSDFVCHYPISKG”, the “transcriptional activation domain activity” value turned out to be 72200.

As for “IKLMDLLIILLKIHGFRLKYFLLTNDLFPKIMLLCRANHLSLQLCPVRFLRIC”, the “transcriptional activation domain activity” value came out at 81100.

Regarding “ESAAASSNQSSAPASAPTPNAPPSTANAEGGENKPKPSRRRGRGGGGGGQKQN”, the “transcriptional activation domain activity” value was 27400.

On to “GVDPATKEKKVPSDVLEEPPTLKESLQVLYKYCILCFNLNRKRVVLQFIASFL”, for which the “transcriptional activation domain activity” value is 73300.

As to “LRPHRYFHTNQIYYAAILIDLILRFTWLSRLSVRINWINDLESGVFVLMFLEV”, the “transcriptional activation domain activity” value was 62500.

For “AQSTSVVLVFGSDEKKVKEIGEGLKSKLGIKGGGKGTRWSGKFTGVWKDAREG”, the “transcriptional activation domain activity” value is 46700.

Take “MCEQHTCLFVLLSVKLLLWRLLFFVESSFLDGMELVLTGRWWAYYIYLWCLTV”: the “transcriptional activation domain activity” value was 54400.

“GGGKGHEDGYMREVRVVPAYLLVEIINRKENRKERVGAKLLLTRACVLGLYTL”: the “transcriptional activation domain activity” value turned out to be 45400.

For “MDNIRSKHNHLLTAGWIYAFIDFWCITLRHFLIFIASMLFYGYLCIWCPTILV”, the “transcriptional activation domain activity” value was determined as 59000.

On to “IYVLHLFSTFPIFPLFPLFPIFLNFFIFLILILIFPIFPIFPIFPIFLIFPIF”, for which the “transcriptional activation domain activity” value was 52900.

As for “MSEPPRKRAKLACVTCNARRVKCDVTERRPCGNCIAGNVECETRESKRGKHPR”, the “transcriptional activation domain activity” value turned out to be 32700.

As for “AQLLQRTWLIHWSLFVFFNHPRGRDYIVDLLFQPNYINSIQMACPWILRYLTA”, the “transcriptional activation domain activity” value was 45100.

Consider “MIPLSHRKHKLISLPYLLVSSWLFLSVTLSIPLLQSYIAKHYSTGLVLFLLYF”, for which the “transcriptional activation domain activity” value amounted to 71900.

Turning to “CTYVRESIKQFNGTYSKALEVRQRSIQFLGQRTKLCWYWLMLRYHLSTLMLVD”, the “transcriptional activation domain activity” value was 39700.

As for “IIHLVNLAQVTVFLVHRILYGIIPLFEIQTCAYFPLLVSLWHMTYILFYVVMF”, the “transcriptional activation domain activity” value turned out to be 36100.

“AAASAPAPQNDGFSEVQHSRGGRGRGGHPSGERGGYRGRGRGGPRGDFGGRGR”: the “transcriptional activation domain activity” value came to 49600.

With “WYHYLPLCGTIFLILLPQPSWLWILVDFHLQTLHRPGLFIIHLLVSYTLIFMI”, the “transcriptional activation domain activity” value turned out to be 38500.

For “RDAEKGKEKRRSRSKNRDEKMEHAEEATGGEPSREHKADSGKKSRRSSIKKSS”, the “transcriptional activation domain activity” value was found to be 29500.

With “ARYIVKYKNGLIGKHFKILQHLGIFHLHNDLCGDNLFNLWKAAGGLGALLWFP”, the “transcriptional activation domain activity” value worked out at 57600.

Take “RLMKKKKKSSLVFVFNHFRPVYVFLFFFSLYFFPFLSTPYFFPSFFFLFLFWV”: the “transcriptional activation domain activity” value is 49900.

For the sequence “MDTSNSWFDASKVQSLNFDLQTNSYYSNARGSDPSSYAIEGEYKTLATDDLGN”, the “transcriptional activation domain activity” value came to 14200.

With “GAKDLDDAVSIKVNEDGTYDVSVHVADVSFFVKPNTALDRDARKRATSVYLVQ”, the “transcriptional activation domain activity” value came to 48400.

With “GKGEKDSKDNEKGEGEKKGENRRGRRRGGRGRGGGGDKDKENNKDGGGGRGEK”, the “transcriptional activation domain activity” value worked out at 30500.

As to “VLGELSRFAGGPEETPIHIGTLYYLNVHTAPPYFWQRCQALLYRNTLLLSWIA”, the “transcriptional activation domain activity” value stood at 52200.

Consider “VKHLKLSRDKSSPTFKFDSLYREILSSHPELMFILTAMLLWPDLVSDYHILRV”, for which the “transcriptional activation domain activity” value worked out at 30200.

For the sequence “VDAKFVIVANYGTACVVMGFLAVAMYCLLITVGDDIYFVGMLFSFTIIGTLMI”, the “transcriptional activation domain activity” value turned out to be 29300.

On to “MYELAFFFFFFLFRLFLSLFRGGCFWVQIFVFIPEYLVYSILFSFFFLLLFTF”, for which the “transcriptional activation domain activity” value was determined as 47500.

“ANRRMSLVCFLFIVVRYVSIAALVLNGVGFYGTMFDMDSCTHFRLAPPVTKMV”: the “transcriptional activation domain activity” value worked out at 44900.

Consider “IGMQLLLTWAYIRLNPFAVYSSPYIILFSFWSLGYLVLVYTLTLPSSLPFYHS”, for which the “transcriptional activation domain activity” value is 46800.

Consider “MYRLQCGVIYSLYVMCFMLLQMLLCVCVVSESFFFFLFLALIVWSPVYIILRV”, for which the “transcriptional activation domain activity” value was 41900.

“IIRARIFSYLYYGVKKFTFLFPINTVITNMAATLLCAVLVIYCTLTILPMIYY”: the “transcriptional activation domain activity” value worked out at 62200.

As to “QFARFTLEETNLMWKRAANPELTPLTSFPPLWVATRLRLFYVINSILSYFMTT”, the “transcriptional activation domain activity” value came to 60800.

“ERKRERREKKEKEREREQREEREKSKERSGKKNGKDSEKRRERRGEKGSEERR”: the “transcriptional activation domain activity” value came out at 32800.

Turning to “SFLIGGGSAFWLITYGLFYWASRLSLDSLASVVLYLGYLFLLALFDFLITGTI”, the “transcriptional activation domain activity” value was found to be 36700.

With “TAPFPILEDQCPALNLDRSNNDLLLQNNISFPKGSDLQAIQLTPISGDYSTYV”, the “transcriptional activation domain activity” value was 92600.

Turning to “MLFSTFFHFMILLCFLLLLCFFYFYDFTYLYGPPMIFYFYYFSLCLYLNKLQF”, the “transcriptional activation domain activity” value is 41600.

For “DDLQQLLEDLGNIDHSDEKLWKEITDQAMWLGNTMDPTAAAGSEIDFTDYLGP”, the “transcriptional activation domain activity” value worked out at 144000.

On to “ERKRKREMAGEDDGRAEAKKVKKEKKEGEKEREKKGKKERKGKKEKEKRKKDM”, for which the “transcriptional activation domain activity” value is 16800.

As to “EFEVDSIDELVLILKESEQSDMLRRIGYCRKRMMSLLRLLVTKVDVVKTITKR”, the “transcriptional activation domain activity” value was found to be 38100.

For “MLILLYLSLLPILYFCTDGLIKDTLLYLHACGLIVWWHCPSSTGDMYGLRHFW”, the “transcriptional activation domain activity” value turned out to be 55800.

“TLELFKLKLVRPASKVYHMGGCAELWGFLVMQNHFRDGEGGHFNSITIDVKWA”: the “transcriptional activation domain activity” value worked out at 59800.

Take “SKAGLILVIRRQGNEIICGAYRNLGFKMLWKLYVKSLFDVMGQWHEVYATSKP”: the “transcriptional activation domain activity” value stood at 64000.

In the case of “EESLKHHEGINMVWRKFQSIFRIIGGIIYYEPIYRAFVRHVLHHLHLDNVLWV”, the “transcriptional activation domain activity” value worked out at 64600.

As for “SFSAYFIACCVVIHVTQLVGSPLYLFNKPLYYAYMARTKQSFGVLVTTITQWW”, the “transcriptional activation domain activity” value amounted to 68900.

These data come from the supplement of paper PMC12636428.
